From the supplement of paper PMC7125110
± gives the standard error. Variants at the floor of the assay were thinned out.

B1: glmS ribozyme (parent)
chain: AUAAAAGCGCCAGAACUACAGAAAUGUAGUUGACGAGGAGGAGGUUUAUCGAAUUUUCGGCGGAUGCCUCCAAA

Variants of: B1
Experiment: self-cleavage kobs at 640 uM GlcN6P; higher = faster cleavage; RNA array
Conditions: with glucosamine-6-phosphate
Summary of the method: (§1)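 Barcoded ribozyme variants on sequenced MiSeq chips were transcribed in situ by E. coli RNA polymerase and followed at 37 °C through a hybridised Cy3 probe. Glucosamine-6-phosphate at 40 μM to 10 mM in HEPES/KCl/Mg(OAc)2 buffer was flowed in, and tiles were imaged over ~14 h. Signals were normalised to baseline and to non-cleaving reference variants, and per-tile medians were fit to one- or two-exponential decays to give kobs. Weighted Michaelis–Menten fits across concentrations gave kcat and KM.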

Variant | self-cleavage kobs at 640 uM GlcN6P [s⁻¹]
AUAAAAGCGCCAGAACUACAGAAAUGUAGUUGACGAGGAGGAGUUUCAUCGAAUUUUCGGCGGAUGCCUCUAAA [G44U U47C C71U] | < 1e-05
AUAAAGGCGCCUGAACUACAGAAAUGUAGUUGACGAGGAGGAGGUUUAUCGAAUUAUCGGCGGAUGCCUCUAAA [A6G A12U U56A C71U] | 8.01e-05 ± 2.1e-05
AUAAAAGCGGCAGACCUACAGAAAUGUAGUUGACGAGGAGGAGGUUUAUAGAAUUUUCGGCGGAUGCCUCCAAA [C10G A15C C50A] | < 1e-05
AUAAAAGCGCUAGAACUACAGAAAUGUAGUUGACGAGGAGGAGGUUUAUCGAAUUUUCGGCGGAGGGCUCCAAA [C11U U65G C67G] | 0.000877 ± 0.00023
AUAAAAGCGCCAGAACUACAGAAAUGUAGUUGACGAGGAGGAGGUUAAUCGUAUUUUCGGCGGGUGCCUCCAAA [U47A A52U A64G] | 7.01e-05 ± 1.7e-05
AUAAAAGGGCCCGAACUACAGAAAUGUAGUUGACGAGGAGGAGGUUUAUCGAAUUUUCGGCGGAUGCCUCAAAA [C8G A12C C71A] | < 1e-05
AUAAAAGCGCCAGAACUACAGAAAUGUAGUUGACGAGCAGGAGGUUUAUCGAAUUUUAGGCGGAUGCCUCUAAA [G38C C58A C71U] | < 1e-05
AUAAAAGCGCAAGAAGUACAGAAAUGUAGUUGACGAGGAGGAGGUUUAUCGAAUUUAGGGCGGUUGCCUCCAAA [C11A C16G U57A C58G A64U] | < 1e-05
AUAAAAGCGCCAGAUCUACAGAAAUGUAAUUGACGAGGAGGAGGUUUAUCGAAUUUUCGGCGGAUGCUUCCAAA [A15U G29A C68U] | 5.07e-05 ± 1.3e-05
AUAAAAGCGCCAGAACUACAGAAAUGUAUUUGCAGAAGAGGAGGUUUAUUGAAUUUUCGGCGGAUGCCGCCAAA [G29U A33C C34A G37A C50U U69G] | 0.000251 ± 5.9e-05
AUAAAAGCGCCAGAACUACAGAAAUGUAGUUGACAAGGUGGAGGUUUAUCCAAUUUUCGGCGGAUGCCUCCAAA [G35A A39U G51C] | < 1e-05
AUAAAAGCGCCAGAACUACAGAAAUGUAGUUGACGCGGAGGAGGUUUAUCGAAUUUUCGGCGGAUGCCACCAAA [A36C U69A] | 6.08e-05 ± 1.6e-05
AUAAAAGCGCAAGAACUACAGAAAUGUAGUUGACGAGAAGGAUGUUUAUCGAAGUUUCGGCGGAUGCCUCCAAA [C11A G38A G43U U54G] | < 1e-05
AUAAAAGCGACAGAACUACAGAAAUGUAGUUGACGAGGAGGAGGUUUACCGAAUUUUCGGCGGAUGCCUCCAAA [C10A U49C] | < 1e-05
AUAAAAGCGCCAGAACUACAGAAAUGUAGUUGACGAGCAGGUGGUUUAUCGAAUUUUCGGCGAAUGCUUCCAAA [G38C A42U G63A C68U] | < 1e-05
AUAAAGGCGCCAGAACUACAGAAAUGUAGUUGACGAGGAGAAGGUUUAUAGAAUUUUCGGCUGAUGCCUCCAAA [A6G G41A C50A G62U] | < 1e-05
AUAAAAGCGCCAGAACUACAGAAAUGUAGUUGUCGCGGAGGAGGCUUAUCGAAUUUUCGGCGGAUGCCUCCAAA [A33U A36C U45C] | < 1e-05
AUAAAAGCGUCAGAACUACAGAAAUGUAGUUCACGAGGAGGAGGUUUAUCGAAUUUUCGGCUGAUGCCUCCAAA [C10U G32C G62U] | < 1e-05
AUAAAAGCCCUAGAACUACAGAAAUGUAGUUGACGAGGAGGAGGUUUAUCGAAUUGUCGGCGGAUCCCUCCAAA [G9C C11U U56G G66C] | < 1e-05
AUAAAAGCACCAGAAUUACAGAAAUGUAGUUGACGAGGAGGAGGUUUAUCGAAUUUUUGGCGGAUGCCUCCAAA [G9A C16U C58U] | < 1e-05
AUAAAAGCGCCAGAACUACAGAAAUGUAGUUCACGAGGAGGAGUUUUAUCUAUUUUUGGGCGGAUGCCUCCAAA [G32C G44U G51U A53U C58G] | < 1e-05
AUAAAAGCGCCAGCACUACAGAAAUGUAGUUGACGAGGAGGUGGUUUAUCGAAUUUUCGGCGAAUGCCUCCAAA [A14C A42U G63A] | < 1e-05
AUAAAAGCGCCAGAAUUACAGAAAUGUAGUUGACGAGGAGGAGGUCUAUCGAAUUUUCGGCUGAUGCCUCCAAA [C16U U46C G62U] | < 1e-05
AUAAAACCCCCAGAACUACAGAAAUGUAGUUGACGAGGAGGAGAUUUAUCGAAUUUUCGGCGGAUGCCUCCAAA [G7C G9C G44A] | < 1e-05

Variants of: B1
Experiment: self-cleavage kobs at 2500 uM GlcN6P; higher = faster cleavage; RNA array
Conditions: with glucosamine-6-phosphate
Summary of the method: as §1

Variant | self-cleavage kobs at 2500 uM GlcN6P [s⁻¹]
AUAAAAGCGCCAGAACUACAGAAAUGUAGUUGACGAGGAGGAGUUUCAUCGAAUUUUCGGCGGAUGCCUCUAAA [G44U U47C C71U] | < 1e-05
AUAAAGGCGCCUGAACUACAGAAAUGUAGUUGACGAGGAGGAGGUUUAUCGAAUUAUCGGCGGAUGCCUCUAAA [A6G A12U U56A C71U] | 9.57e-05 ± 2.8e-05
AUAAAAGCGCCAGAACUACAGAAAUGUAGUUGACGAGGAGGAGGUUAAUCGUAUUUUCGGCGGGUGCCUCCAAA [U47A A52U A64G] | 0.000177 ± 5.4e-05
AUAAAAGGGCCCGAACUACAGAAAUGUAGUUGACGAGGAGGAGGUUUAUCGAAUUUUCGGCGGAUGCCUCAAAA [C8G A12C C71A] | < 1e-05
AUAAAAGCGCAAGAAGUACAGAAAUGUAGUUGACGAGGAGGAGGUUUAUCGAAUUUAGGGCGGUUGCCUCCAAA [C11A C16G U57A C58G A64U] | < 1e-05
AUAAAAGCGCCAGAUCUACAGAAAUGUAAUUGACGAGGAGGAGGUUUAUCGAAUUUUCGGCGGAUGCUUCCAAA [A15U G29A C68U] | 7.12e-05 ± 2.1e-05
AUAAAAGCGCCAGAACUACAGAAAUGUAGUUGACAAGGUGGAGGUUUAUCCAAUUUUCGGCGGAUGCCUCCAAA [G35A A39U G51C] | < 1e-05
AUAAAAGCGCCAGAACUACAGAAAUGUAGUUGACGCGGAGGAGGUUUAUCGAAUUUUCGGCGGAUGCCACCAAA [A36C U69A] | 0.000182 ± 4.6e-05
AUAAAAGCGUCAGAACUACAGAAAUGUAGUUCACGAGGAGGAGGUUUAUCGAAUUUUCGGCUGAUGCCUCCAAA [C10U G32C G62U] | < 1e-05

Variants of: B1
Experiment: self-cleavage kobs at 10000 uM GlcN6P; higher = faster cleavage; RNA array
Conditions: with glucosamine-6-phosphate
Summary of the method: as §1

Variant | self-cleavage kobs at 10000 uM GlcN6P [s⁻¹]
AUAAAAGCGCUAGAACUACAGAAAUGUAGUUGACGAGGAGGAGGUUUAUCGAAUUUUCGGCGGAGGGCUCCAAA [C11U U65G C67G] | 0.000136 ± 2.6e-05
AUAAAAGCGCCAGAACUACAGAAAUGUAUUUGCAGAAGAGGAGGUUUAUUGAAUUUUCGGCGGAUGCCGCCAAA [G29U A33C C34A G37A C50U U69G] | 0.000226 ± 4.5e-05
AUAAAACCCCCAGAACUACAGAAAUGUAGUUGACGAGGAGGAGAUUUAUCGAAUUUUCGGCGGAUGCCUCCAAA [G7C G9C G44A] | < 1e-05
